Source: patent publication US20260248877A1 (Universite de Rennes, priority 2021, published 2026)
“Also recorded” adds a separate entry of the source.

Columns and labels:
[1] = Polymerization kinetics of selected peptide alone (ThT spectrofluorimetry); format: physicochemical; details: 310 μM, ThT fluorescence
Description: After thawing, a pre-dilution of the peptides of interest in sterile water was carried out in order to obtain, for each peptide, a solution at a concentration close to the working concentration. The peptides were then left to incubate at 4° C. overnight. On the day of the experiment, the peptide solutions were sonicated for 10 minutes, left to stand for one hour at room temperature, sonicated again for 10 minutes and assayed spectrophotometrically at 280 nm (8=1450 M^−1cm^−1). The UV spectra were previously normalized to 0 at 300 nm. The solutions were prepared at concentrations of peptides ¼ above that desired in the end. The polymerization of VQIVYK was initiated by adding ¼ of the volume of fibrillation buffer 5× for a final concentration of fibrillation buffer 1× (10 mM MOPS, 150 mM NaCl, pH=7.2).
The analyses were carried out on a spectrofluorometer (LS 55 from Perkin Elmer) fitted with a 4-cell rack. Black quartz cells (0.2×1.0 cm) were used. […]
The results were first smoothed over 10 points with the “smooth” option of the KaleidaGraph software. […] Finally, the results of each kinetics were normalized relative to the fluorescence intensity of the 1p control after 100 minutes of polymerization considered to be 100%.

[2] = system: cells of the neuroblastoma line SH-SY5Y; assay: Growth of SH-SY5Y neuroblastoma cells (images); format: cell-based; details: 100 μM, 24 hours, 1×DMEM medium, 8% serum
Description: The effects of three hexapeptides classified as “therapeutic” (1tp, 4tp, 6tp) and of two peptides classified as “amyloid” (7tp and 1p) on the growth of cells of the neuroblastoma line SH-SY5Y were studied after 24 hours of treatment in the presence of a hexapeptide at a concentration of 100 μM in 1×DMEM medium, 8% serum. The results obtained are presented on FIG. 10(A).

[3] = Determination of the aggregative character of the peptides by sedimentation; format: physicochemical; details: sedimentation, Garnier-Delamarche representation
Description: (§1) After thawing, a pre-dilution in milli Q H2O filtered through 0.2 μm was carried out in order to obtain a solution at a concentration close to the working concentration, greater than 1.25 times. This stock solution was left to incubate for 1 hour in a water bath at 25° C., and was then assayed spectrophotometrically and adjusted to the final working concentration of 1.25 times. The polymerization was initiated by adding ¼ of the volume of 5× fibrillation buffer (50 mM MOPS, 750 mM NaCl, pH=7.2) for a final concentration of 1× fibrillation buffer (10 mM MOPS, 150 mM NaCl, PH=7.2). The samples were left to incubate for 1.5-2 hours at 25° C. in a water bath. The study of the polymerization by fluorimetry was carried out under the same conditions, except that the 5× polymerization buffer was supplemented with Thioflavin T (ThT) at 100 μM in order to be able to observe the fluorescence. • (a) Determination of the Aggregative Character of the Peptides. Once polymerized, the samples were ultracentrifuged at 100,000 g for 5 minutes at 25° C. (Beckman TL100, rotor TL-A100). The supernatants of each sample were then collected. An assay at 280 nm in triplicate of each supernatant was then carried out in the presence of 1% SDS. The concentration of the supernatant was determined using the Beer-Lambert law A=ε×1×C; ε (peptides)=1450 M^−1cm^−1. The concentration of sedimentable species in the pellet was then deduced by the difference: “total concentration of the sample—concentration of free peptide present in the supernatant”. • (b) Determination of the Amyloidogenic Character of the Peptides. Once the peptides have polymerized as previously indicated, 40 μL of peptides polymerized at a concentration of 400 μM and 800 μM were diluted in 360 μL of Thioflavin T (10 μM ThT, 1×MOPS) in a thermostatically controlled tank of 0.2×1 cm, to a final volume of 400 μL. The fluorescence of the sample was then measured immediately after dilution by recording a fluorescence spectrum (470 nm to 600 nm) at an excitation wavelength of 450 nm (Perkin Elmer LS 55, PM 750, slit10).
(§2) After prediction of their amyloidogenic character by bioinformatics, all the peptides were studied using biochemical techniques, namely sedimentation and fluorescence/ThT. The biochemical experiments were carried out at two peptide concentrations: 400 μM and 800 μM. Only the results obtained at 800 μM are presented. At this concentration, in sedimentation, the amount of sedimentable peptide after polymerization was measured and expressed as a percentage as a function of the total concentration. This value corresponds to the aggregative character of the peptides. On the other hand, the fluorescence test was used to determine their amyloidogenic character, the fluorescence value given corresponds to a normalization with respect to 1p, considering that its fluorescence is 100% (Table 4).

[4] = target: T1, PHF6 peptide (VQIVYK, 1p) (Homo sapiens, UniProt P10636); assay: Effects of the derived peptides on VQIVYK polymerization by spectrofluorimetry (ThT kinetics); format: biochemical
T1 construct: The polymerization of VQIVYK was initiated by adding ¼ of the volume of fibrillation buffer 5×

[5] = Determination of the amyloidogenic character of the peptides by Thioflavin T fluorescence; format: physicochemical; details: ThT fluorescence, Garnier-Delamarche representation
Description: as §1, §2

[6] = Solubility of peptides in aqueous medium; format: physicochemical; details: could not be tested at 800 μM
Description: The PHIF6 peptide (Ac-VQIVYK-NH2) as well as the derived hexapeptides were produced by Proteogenix® in an N-acetylated and C-amidated form and supplied in a lyophilized form. They are acetylated and amidated in order to better mimic the original protein. They were resuspended in milli Q water and filtered through 0.2 μm to obtain a concentration close to 5 mg/mL. After being vortexed for 15 minutes, the peptide solution was sonicated for 15 minutes at 35° C. in a sonicator water bath (Advantage-Lab AL04-04) then ultracentrifuged (Beckman TL100) at 100,000 g for 10 minutes at 20° C. The pellet containing the residual aggregates was discarded. The concentration of the supernatant was determined by measuring UV absorption at 280 nm using a molar extinction coefficient of 1450 M^−1cm^−1 in 1% SDS.

[7] = [1p]=155 μM, [selected peptide]=310 μM, [ThT]=32 μM

Substance: YQIVVK (Ac-YQIVVK-NH2) [6tp]
- polymerization of the peptide on its own [1]: do not polymerize on their own
- effect on cell growth (number and appearance of cells) [2]: did not seem to have any effect
- aggregative character (in words) [3]: weakly aggregative
- category of polymerization kinetics of 1p in the presence of peptide ([4]; [1p]=155 μM, [selected peptide]=310 μM): slow compared to 1p alone and which have a lower fluorescence intensity
- inhibitory effect on 1p (PHF6) polymerization (in words) ([4]; [1p]=155 μM, [selected peptide]=310 μM, thresholds 50% rate, 100% fluorescence intensity): clearly inhibited; also recorded: marked inhibitory effect; also recorded: with a strong inhibitory effect
- inhibitory effect over longer times ([4]; polymerization followed for 15 hours): the inhibitory effect persisted
- amyloidogenic character (in words) [5]: weakly amyloidogenic

Substance: Ac-VKIVYQ-NH2 [1tp, VKIVYQ]
- effect on cell growth (number and appearance of cells) [2]: did not seem to have any effect
- fluorescence intensity (plateau / at 100 minutes) of 1p in the presence of peptide, % of 1p alone [4, 7]: 23.5%
- maximum polymerization rate of 1p in the presence of peptide, % of 1p alone [4, 7]: 12%

Substance: Ac-YQVKIV-NH2 [16p, YQVKIV]
- solubility in aqueous medium [6]: low solubility

Substance: Ac-YQVVIK-NH2 [9tp, YQVVIK]
- solubility in aqueous medium [6]: low solubility
